Measured values from publication PMC8465315, “Molecular Umbrella as a Nanocarrier for Antifungals” (Molecules, 2021).
Entries after “also recorded” stand apart in the source; their conditions may differ.

Assays:
[1] = tested on: C. albicans cell-free extract; type: in vitro ADME, Candida albicans; conditions: conjugate 150 µM, 30 °C, 0, 30, 120 min
Experimental: (§1) Conjugates 24a–d, containing the TML system, were tested for susceptibility to enzymatic cleavage in the model system with pig liver esterase and in cell-free extract prepared from C. albicans cells. Conjugate 35 containing the o-dithiobenzylcarbamoyl linker was tested in the model system with glutathione and in C. albicans cell-free extract.
C. albicans cells were harvested from the culture in YPD medium in the logarithmic phase of growth and washed with PBS, pH 7.4. Then, cells were suspended in a minimal amount of PBS to an optical density OD660 ≈ 1.5. A sample of 1.5 mL of the cell suspension was put into the Lysing Matrix D, 2 mL tubes containing 1.4 mm ceramic spheres (MP Biomedicals). The tubes were vortexed 5 times for 2 min intervals, with 2 min breaks for cooling in the ice/water bath. Finally, the mixtures were centrifuged (10,000× g, 4 °C, 20 min), and the supernatant was pushed through the syringe filter, 0.22 μm pore size, to remove unbroken cells. The thus-obtained cell-free extract was kept at 4 °C and used no later than 5 h after preparation.
(§2) Analysis of cleavage of the conjugates was performed in two experimental systems: (A) model system, in the presence of pig liver esterase or glutathione, reduced; (B) in C. albicans cell-free extract.
A given conjugate was dissolved in 4 mL of C. albicans cell-free extract to the initial concentration of 150 µM. Mixtures were incubated at 30 °C. Samples of 1 mL were collected at zero time, after 30 min, and after 120 min. The collected samples were immediately de-proteinized by centrifugation (4 °C, 5000× g, 10 min) in Amicon® Ultra-4 Centrifugal Filter Units, 3 kDa cutoff limit. Samples of 50 μL were collected from the filtrates and subjected to HPLC-MS analysis.
(§3) The HPLC-MS system consisted of a liquid chromatograph, a degasser, a binary pomp, an auto-sampler, and a column oven, which was combined with an MS detector with an electrospray source (AJS ESI) and quadrupole analyzer (1260 Infinity II and 6470 Triple Quad LC/MS, Agilent Technologies, Waldbronn, Germany). The ChemStation software was used to control the LC-MS system and for data processing.
(§4) Chromatographic separations were performed on an Eclipse XDB-C18 column (150 mm × 4.6 mm, 5 μm). For the separation, a gradient of mobile phase A (H2O + 0.01% HCOOH) and mobile phase B (100% methanol) was used. The gradient profile was set as follows: 0 min—95% effluent A, 8 min—70% effluent A, 11 min—50% effluent A, 12 min—95% effluent A, 17 min—95% effluent A. The flow rate was 1 mL min^−1, the column temperature was 25 °C, and the injection volume was 20 μL.
(§5) The electrospray source operated in a negative mode. The data were collected in a MS scanning mode (MS2 SCAN) with the range 150–700 (m/z).

pig liver esterase = test: HPLC-MS analysis of conjugate cleavage, model system with pig liver esterase; type: in vitro ADME; conditions: pig liver esterase 5 mg mL^−1; conjugate 150 µM; 30 °C; 0, 30, 120 min
Experimental: as §1, §2
(§6) Mixtures containing a given conjugate at the initial concentration of 150 µM and pig liver esterase, 5 mg mL^−1 or 10 mM glutathione, reduced, in a total volume of 200 μL were incubated at 30 °C. Samples of 50 μL were collected at zero time, after 30 min, and after 120 min and subjected to HPLC-MS analysis.
as §3, §4, §5

Candida spp. = test: Antifungal in vitro activity, summary statements over the Candida strains tested; type: cell-based
Experimental: The antifungal in vitro activity of conjugates 24a–d and 35 was determined by the serial two-fold dilution method, using the 96-well microtiter plates, in two growth media, RPMI-1640 and YNB-AS, against seven yeast species from the Candida genus. The MIC50 and MIC90 values, i.e., concentrations at which cell growth was inhibited in 50% and 90%, respectively, were measured and compared to those of the intact cispentacin. The concentration values presented in Table 1 and Table 2 are expressed in mM units to allow the comparison of the compounds’ effectiveness at the molecular level. For data expressed in μg mL^−1 units, such comparison is not possible, since the molecular masses of conjugates (≈1755–2114 D range) are 14–16-fold higher than that of cispentacin (128.3 D).
Susceptibility testing was performed in two growth media: (a) RPMI-1640 w/o sodium bicarbonate, with L-glutamine + 2% glucose + 3.45% MOPS, pH adjusted to 7.0; (b) YNB-AS—Yeast Nitrogen Base w/o amino acids (contains ammonium sulfate 5 g L^−1) + 2% glucose. The in vitro growth inhibitory activity of antifungals was quantified by determination of MIC50 and MIC90 values by the serial two-fold dilution method, using the 96-well microtiter plates. Serial dilutions of cispentacin and its conjugates were prepared in the 4–0.015 mM range.
Conditions of the RPMI-1640-based assay were the same as outlined in the CLSI recommendations except for the end-point readout that was done by spectrophotometric determination of cell density at 660 nm. Turbidity in individual wells was measured with a microplate reader (Victor^3; Perkin Elmer). The 96-well microtiter plates were also used for the determination of in vitro growth inhibitory activity in YNB-AS medium. Individual wells were inoculated with 5 × 10^3 Candida cells mL^−1 from the overnight culture in YPD medium. The plates were incubated at 37 °C for 24 h, and then, turbidity was measured with a microplate reader at 660 nm, as described above for the RPMI-1640-based assay.
Values of MIC50 and MIC90 were read from the graphs of A660 vs. drug concentration and corresponded to the interpolated values of drug concentration at which A660 was 50% or 10% of that measured for the drug-free control.

[2] = HPLC-MS analysis of conjugate cleavage, model system with glutathione; type: in vitro ADME; conditions: reduced, conjugate 150 µM, 30 °C, 0, 30, 120 min
Experimental: as §1, §2, §6, §3
Chromatographic separations were performed on an Eclipse XDB-C18 column (150 mm × 4.6 mm, 5 μm). […]

SMILES	cleavage / release of cispentacin or its derivative (HPLC-MS) [1]	cleavage / release of cispentacin (HPLC-MS) (pig liver esterase)	antifungal activity (Candida spp.; RPMI-1640 medium)	antifungal activity (Candida spp.; both growth media (RPMI-1640 and YNB-AS))	cleavage / release of cispentacin (HPLC-MS) [2]
Cc1cc(C)c(C(C)(C)CC(=O)N[C@H]2CCC[C@H]2C(=O)O)c(OC(=O)CCCCCC(=O)N(CCCCNC(=O)CC[C@@H](C)[C@H]2CC[C@H]3[C@@H]4[C@H](OS(=O)(=O)O)C[C@@H]5C[C@H](OS(=O)(=O)O)CC[C@]5(C)[C@H]4C[C@H](OS(=O)(=O)O)[C@]23C)CCCNC(=O)CC[C@@H](C)[C@H]2CC[C@H]3[C@@H]4[C@H](OS(=O)(=O)O)C[C@@H]5C[C@H](OS(=O)(=O)O)CC[C@]5(C)[C@H]4C[C@H](OS(=O)(=O)O)[C@]23C)c1 [24c]	the product of a possible cleavage, with RT similar to that of cispentacin but with 17 D higher MW, was formed	Presence of the released cispentacin was confirmed	–	–	–
Cc1cc(C)c(C(C)(C)CC(=O)N[C@H]2CCC[C@H]2C(=O)O)c(OC(=O)CCC(=O)N(CCCCNC(=O)CC[C@@H](C)[C@H]2CC[C@H]3[C@@H]4CC[C@@H]5C[C@H](OS(=O)(=O)O)CC[C@]5(C)[C@H]4C[C@H](OS(=O)(=O)O)[C@]23C)CCCNC(=O)CC[C@@H](C)[C@H]2CC[C@H]3[C@@H]4CC[C@@H]5C[C@H](OS(=O)(=O)O)CC[C@]5(C)[C@H]4C[C@H](OS(=O)(=O)O)[C@]23C)c1 [24a]	Neither cispentacin nor the m/z 145.1/145.2 compound was found	resistant to enzymatic cleavage	devoid of antifungal activity	–	–
C[C@H](CCC(=O)NCCCCN(CCCNC(=O)CC[C@@H](C)[C@H]1CC[C@H]2[C@@H]3[C@H](OS(=O)(=O)O)C[C@@H]4C[C@H](OS(=O)(=O)O)CC[C@]4(C)[C@H]3C[C@H](OS(=O)(=O)O)[C@]12C)C(=O)CCSSc1ccccc1COC(=O)N[C@H]1CCC[C@H]1C(=O)O)[C@H]1CC[C@H]2[C@@H]3[C@H](OS(=O)(=O)O)C[C@@H]4C[C@H](OS(=O)(=O)O)CC[C@]4(C)[C@H]3C[C@H](OS(=O)(=O)O)[C@]12C [compound 35]	Neither cispentacin nor the m/z 145.1/145.2 compound was found	–	devoid of antifungal activity	inactive in both media	found in the chromatogram of post-reaction mixture; also recorded: cleavage was observed
